The record followed here is publication PMC8938308 (Human genetics, 2021).

In the experiment the target is sodium/potassium-transporting ATPase ATP1A3, F309S mutant, V5-tagged (human, UniProt P13637-3 1-1026, F309S). Nature of the experiment: co-IP.

B1: TOMM22, GFP-tagged (natural protein, UniProt Q9NS69 1-142, looked up)
chain: MAAAVAAAGAGEPQSPDELLPKGDAEKPEEELEEDDDEELDETLSERLWGLTEMFPERVRSAAGATFDLSLFVAQKMYRFSRAALWIGTTSFMILVLPVVFETEKLQMEQQQQLQQRQILLGPNTGLSGGMPGALPSLPGKI
For B1, the “reduction of the interaction against WT ATP1A3” value is roughly 50%.
